Assay results published in patent US20220184221A1 (published 2022).
Where no end group is shown, it is not given here.

Assays:
Experiment in all cases: inhibition of recombinant KDM5 demethylase activity (H3K4me3 peptide); legend calls it IC50
KDM5B = target: KDM5B
KDM5A = target: KDM5A
recombinant KDM5C = target: T1, recombinant KDM5C (UniProt P41229 1-765)
T1 chain: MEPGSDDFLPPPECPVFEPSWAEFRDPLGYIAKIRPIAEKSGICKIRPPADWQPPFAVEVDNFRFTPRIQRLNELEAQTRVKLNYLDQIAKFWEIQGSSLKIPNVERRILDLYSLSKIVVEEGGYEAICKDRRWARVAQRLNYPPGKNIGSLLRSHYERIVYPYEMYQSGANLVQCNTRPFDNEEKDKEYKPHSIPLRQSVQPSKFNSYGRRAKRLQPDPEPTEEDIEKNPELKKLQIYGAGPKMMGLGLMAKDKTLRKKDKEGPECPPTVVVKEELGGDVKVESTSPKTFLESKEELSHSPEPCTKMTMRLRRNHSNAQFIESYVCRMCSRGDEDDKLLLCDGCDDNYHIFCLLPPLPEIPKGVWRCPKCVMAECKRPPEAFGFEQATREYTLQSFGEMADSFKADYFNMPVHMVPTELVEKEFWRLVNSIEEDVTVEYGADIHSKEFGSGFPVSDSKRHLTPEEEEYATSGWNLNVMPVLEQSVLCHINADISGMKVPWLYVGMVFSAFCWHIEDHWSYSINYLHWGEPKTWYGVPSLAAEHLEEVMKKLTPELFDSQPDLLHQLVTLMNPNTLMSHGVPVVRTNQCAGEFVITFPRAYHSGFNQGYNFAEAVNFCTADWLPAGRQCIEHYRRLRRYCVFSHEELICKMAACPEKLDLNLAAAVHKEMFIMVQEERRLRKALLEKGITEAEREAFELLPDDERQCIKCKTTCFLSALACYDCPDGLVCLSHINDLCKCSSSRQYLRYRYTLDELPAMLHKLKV

B1: EP4 (peptide)
peptide: TEDSKTHHH
modifications: also: fluorescein label in FP assay, end not given here
- EC50 (KDM5B): 377 nM
- EC50 (KDM5A): 422 nM
- EC50 (recombinant KDM5C): 0.97 nM
